From US20190359992

How the values were obtained:
Test in all cases: cell_activity
[1] = test system: GmUbi3_T01.1 Left TALEN (synthetic construct); conditions: pair with P2; soybean protoplasts, raw 0.72%; full site SEQ 25
[2] = test system: GmUbi3_T03.1 Left TALEN (synthetic construct); conditions: pair with P6; soybean protoplasts, raw 4.98%; full site SEQ 27
[3] = test system: GmUbi3_T01.1 Right TALEN (synthetic construct); conditions: pair with P1; soybean protoplasts, raw 0.72%; full site SEQ 25
[4] = test system: GmUbi3_T02.1 Right TALEN (synthetic construct); conditions: pair with P3; soybean protoplasts, raw 1.70%; full site SEQ 26
[5] = test system: GmUbi3_T02.1 Left TALEN (synthetic construct); conditions: pair with P4; soybean protoplasts, raw 1.70%; full site SEQ 26
[6] = test system: GmUbi3_T03.1 Right TALEN (synthetic construct); conditions: pair with P5; soybean protoplasts, raw 4.98%; full site SEQ 27

Sequence: TGTCCTCCGTCTCCGT (double strand) [GmUbi3_T1 left half-site]
- activity (% normalized mutation frequency) [1]: 0.91

Sequence: TCATCAACTGTGGAGT (double strand) [GmUbi3_T3 left half-site]
- activity (% normalized mutation frequency) [2]: 8.12

Sequence: CCAACATTACACAACT (double strand) [GmUbi3_T1 right half-site]
- activity (% normalized mutation frequency) [3]: 0.91

Sequence: CCTTCACACAACTCAT (double strand) [GmUbi3_T2 right half-site]
- activity (% normalized mutation frequency) [4]: 2.76

Sequence: CTTCCATGCTTGTCAT (double strand) [GmUbi3_T2 left half-site]
- activity (% normalized mutation frequency) [5]: 2.76

Sequence: GCCTTGAGCTAGTTGT (double strand) [GmUbi3_T3 right half-site]
- activity (% normalized mutation frequency) [6]: 8.12
